# Source: US20140044713A1 (KONINKLIJKE NEDERLANDSE AKADEMIE VAN WETENSCHAPPEN, published 2014)
# T1: Lgr5 ΔN (deletion of the extreme N-terminus of Lgr5, amino acids 28-50) (UniProt O75473 22-907)
# T1 construct: whole, on cells; Deletion construct
# T1 sequence (looked up): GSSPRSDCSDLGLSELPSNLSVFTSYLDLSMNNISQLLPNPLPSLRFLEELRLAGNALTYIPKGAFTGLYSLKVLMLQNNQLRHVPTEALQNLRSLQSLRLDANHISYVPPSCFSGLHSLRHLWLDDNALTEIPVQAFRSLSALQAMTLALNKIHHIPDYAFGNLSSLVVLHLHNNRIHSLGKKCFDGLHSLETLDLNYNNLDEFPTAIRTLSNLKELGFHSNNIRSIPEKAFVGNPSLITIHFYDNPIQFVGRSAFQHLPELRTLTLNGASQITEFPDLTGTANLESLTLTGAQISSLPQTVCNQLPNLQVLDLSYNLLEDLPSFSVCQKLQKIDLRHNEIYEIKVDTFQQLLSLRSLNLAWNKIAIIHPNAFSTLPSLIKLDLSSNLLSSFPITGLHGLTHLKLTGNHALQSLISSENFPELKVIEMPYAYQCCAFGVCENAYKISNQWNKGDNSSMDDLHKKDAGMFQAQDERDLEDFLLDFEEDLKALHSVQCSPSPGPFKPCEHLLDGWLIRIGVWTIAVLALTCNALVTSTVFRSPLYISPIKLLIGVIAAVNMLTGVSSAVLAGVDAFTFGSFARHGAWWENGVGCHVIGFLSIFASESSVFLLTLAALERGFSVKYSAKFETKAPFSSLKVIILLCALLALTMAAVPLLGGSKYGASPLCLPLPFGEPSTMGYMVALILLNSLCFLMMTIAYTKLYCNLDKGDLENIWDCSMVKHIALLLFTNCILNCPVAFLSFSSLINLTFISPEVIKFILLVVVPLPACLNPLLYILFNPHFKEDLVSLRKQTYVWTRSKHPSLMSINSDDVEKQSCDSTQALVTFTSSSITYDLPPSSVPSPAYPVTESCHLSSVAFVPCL
# T2: Lgr5 ΔLRR1-17 (deletion of N-terminus and entire LRR region) (UniProt O75473 22-907)
# T2 construct: whole, on cells; Deletion construct
# T2 sequence (looked up): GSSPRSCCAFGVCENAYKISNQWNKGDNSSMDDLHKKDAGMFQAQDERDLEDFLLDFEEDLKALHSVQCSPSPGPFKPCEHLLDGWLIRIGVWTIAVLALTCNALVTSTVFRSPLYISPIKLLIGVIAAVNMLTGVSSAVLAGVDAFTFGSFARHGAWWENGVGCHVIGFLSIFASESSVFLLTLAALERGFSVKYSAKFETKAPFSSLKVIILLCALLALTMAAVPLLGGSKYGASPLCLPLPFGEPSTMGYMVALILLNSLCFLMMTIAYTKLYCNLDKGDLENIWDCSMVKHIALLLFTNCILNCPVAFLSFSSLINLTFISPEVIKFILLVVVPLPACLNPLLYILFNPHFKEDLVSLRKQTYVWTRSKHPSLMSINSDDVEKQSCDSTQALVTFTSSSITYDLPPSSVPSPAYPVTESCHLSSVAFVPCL
# T3: control Lgr7 (Homo sapiens (Human), UniProt Q9HBX9 1-757)
# T3 construct: not shown: the sister constructs are FH-tagged
# T3 sequence: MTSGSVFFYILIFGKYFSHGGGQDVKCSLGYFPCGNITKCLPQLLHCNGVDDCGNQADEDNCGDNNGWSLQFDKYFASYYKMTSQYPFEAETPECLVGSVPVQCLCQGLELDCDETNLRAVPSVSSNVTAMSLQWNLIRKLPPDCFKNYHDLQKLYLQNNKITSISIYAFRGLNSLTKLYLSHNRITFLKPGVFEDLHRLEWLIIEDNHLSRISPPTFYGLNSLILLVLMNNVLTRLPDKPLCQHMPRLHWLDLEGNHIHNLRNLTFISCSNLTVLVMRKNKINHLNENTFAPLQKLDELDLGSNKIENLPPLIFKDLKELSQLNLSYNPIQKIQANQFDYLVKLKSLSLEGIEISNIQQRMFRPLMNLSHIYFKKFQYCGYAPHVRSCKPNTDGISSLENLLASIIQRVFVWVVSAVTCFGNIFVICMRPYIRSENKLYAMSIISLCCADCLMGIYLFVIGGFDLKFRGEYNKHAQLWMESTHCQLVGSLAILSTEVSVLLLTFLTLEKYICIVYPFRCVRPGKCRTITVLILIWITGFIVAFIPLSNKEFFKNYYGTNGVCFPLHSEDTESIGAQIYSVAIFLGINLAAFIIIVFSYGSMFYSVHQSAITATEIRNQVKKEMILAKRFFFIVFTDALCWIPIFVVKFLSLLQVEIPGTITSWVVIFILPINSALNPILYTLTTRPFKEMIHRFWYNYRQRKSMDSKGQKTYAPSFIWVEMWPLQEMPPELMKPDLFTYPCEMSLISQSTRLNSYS
# T4: Lgr5-exo-Fc (leucine-rich-repeat exodomain of Lgr5, amino acids 1 to 546, human IgG-Fc fusion protein) (human, UniProt O75473 22-546)
# T4 construct: range 1-546; also called LGR5-Fc; huLGR5-Fc; not shown: human IgG-Fc
# T4 sequence (looked up): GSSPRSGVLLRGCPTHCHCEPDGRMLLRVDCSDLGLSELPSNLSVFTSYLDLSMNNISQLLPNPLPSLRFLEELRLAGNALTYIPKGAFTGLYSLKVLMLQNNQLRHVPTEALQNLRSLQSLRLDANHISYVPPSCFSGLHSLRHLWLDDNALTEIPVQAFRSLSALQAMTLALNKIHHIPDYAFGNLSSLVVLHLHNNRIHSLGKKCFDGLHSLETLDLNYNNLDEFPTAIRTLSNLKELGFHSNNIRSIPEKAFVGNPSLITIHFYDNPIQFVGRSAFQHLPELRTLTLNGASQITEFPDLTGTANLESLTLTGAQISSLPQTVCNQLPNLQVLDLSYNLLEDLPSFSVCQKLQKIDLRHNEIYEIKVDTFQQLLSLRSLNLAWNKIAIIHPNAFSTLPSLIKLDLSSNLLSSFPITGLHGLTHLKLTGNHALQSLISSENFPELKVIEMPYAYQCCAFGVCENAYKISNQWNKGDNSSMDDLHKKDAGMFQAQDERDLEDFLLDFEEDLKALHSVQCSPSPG
# T5: LGR5-478 (exo domain of LGR5 without the CRL region) (UniProt O75473 22-478)
# T5 construct: domain: exo domain of LGR5 without the CRL region; Purified protein
# T5 sequence (looked up): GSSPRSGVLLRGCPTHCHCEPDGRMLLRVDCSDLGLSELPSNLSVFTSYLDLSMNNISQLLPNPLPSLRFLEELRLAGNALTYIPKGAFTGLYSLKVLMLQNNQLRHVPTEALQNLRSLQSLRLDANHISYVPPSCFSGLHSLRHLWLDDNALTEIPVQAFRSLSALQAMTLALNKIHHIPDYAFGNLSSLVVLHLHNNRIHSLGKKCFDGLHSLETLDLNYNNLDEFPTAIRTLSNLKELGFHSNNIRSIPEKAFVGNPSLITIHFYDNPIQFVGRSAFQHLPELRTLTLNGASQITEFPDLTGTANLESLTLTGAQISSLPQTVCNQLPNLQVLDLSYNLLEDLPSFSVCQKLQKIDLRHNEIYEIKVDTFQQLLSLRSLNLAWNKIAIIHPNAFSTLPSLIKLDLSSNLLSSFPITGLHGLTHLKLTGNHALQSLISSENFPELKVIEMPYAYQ
# B1: Rspo1-Fc fusion protein (Fc fusion)
# chain: SRGIKGKRQRRISAEGSQACAKGCELCSEVNGCLKCSPKLFILLERNDIRQVGVCLPSCPPGYFDARNPDMNKCIKCKIEHCEACFSHNFCTKCKEGLYLHKGRCYPACPEGSSAANGTMECSSPAQCEMSEWSPWGPCSKKQQLCGFRRGSEERTRRVLHAPVGDHAACSDTKETRRCTVRRVPCPEGQKRRKGGQGRRENANRNLARKESKEAGAGSRRRKGQQQQQQQGTVGPLTSAGPA
# notes: also called Rspondin1 IgFc fusion protein; not shown: Fc (IgFc) part
# B2: double (FLAG-HA)-tagged version of human Rspo-1 (Rspo1-FH) (ligand)
# chain: B1 chain
# notes: Used as HEK293T conditioned medium; also called huRSPO1-FH; not shown: FLAG-HA double tag
# B3: antibody 1D9 (antibody, V domains shown)
# VH: EVKLQESGAALVKPGASVKLSCKASGYTFTDYYIHWVKQSHGKSLEWIGYINPNSGYTNYNEKFKSKATLTVDKSTNTAYMELSRLTSEDSATYYCTRFGSYWYFDFWGQGTTVTVSS
# VL: MTQSPTSMSISIGDRVTMNCKASQNVDSNVDWYQQKTGQSPKLLIYKASNRYTGVPDRFTGSGSGTDFTFTISNMQAEDLAVYYCMQSNSYPLTFGSGTKLEIKR
# notes: Rat monoclonal antibody against human Lgr5; hybridoma LMBP 6961CB; also called Ab1; 1D9 A5
# Tests used:
# [1] = biological target: T1, Lgr5 ΔN (deletion of the extreme …); experiment: right panels: incubation with Rspo1 after cell lysis, FLAG immunoprecipitation, anti-hIgG-Fc Western blot
# [2] = biological target: T2, Lgr5 ΔLRR1-17 (deletion of N-terminus …); experiment: as above
# tagged Frizzled5 (Frz5) = biological target: T6, tagged Frizzled5 (Frz5) (UniProt Q13467 27-585, limits assumed); experiment: Rspo1-Fc pull-down (proteinG beads) from transfected HEK293T cells, FLAG western blot
# T6 construct: whole, on cells; also called double-tagged Frizzled5; Frz5 bait; not shown: FLAG/HA tag
# control Lgr7 = biological target: T3, control Lgr7; experiment: HEK293T cells transfected with the tagged Lgr, incubated with Rspo1-Fc, protein G immunoprecipitation, anti-FLAG Western blot
# Excerpt: FIG. 7A: Rspondin1 binds to Lgr4, Lgr5 and Lgr6. […] Bottom: Input of tagged proteins.
# [3] = biological target: T4, Lgr5-exo-Fc (leucine-rich-repeat …); experiment: SPR array imaging (IBIS MX96), Rspo1-FH captured on anti-FLAG, LGR5-Fc at 45, 23 and 11 nM, 1:1 discrete interaction model
# Excerpt: This allowed us to perform a binding experiment using Surface Plasmon Resonance array imaging.
# LRP5 (endogenous) = biological target: T7, LRP5 (endogenous) (human, UniProt O75197 32-1615); experiment: TAP (anti-FLAG, anti-HA) + mass spectrometry, 293T cells incubated with the soluble tagged bait, Exp 9
# T7 construct: whole, on cells
# Method: (§1) Left panel (Exps 1-7): HEK293T cells were transiently transfected, and LS174T cells were stably, transfected with the indicated tagged proteins. Right panel (Exps 8-9): HEK293T cells were incubated with the indicated tagged soluble proteins at 1 μg/ml. Sequential immunoprecipitation was performed by anti-FLAG and anti-HA antibodies and the associated complexes were analysed by mass spectrometry. Number of assigned spectra, number of unique peptides and the MASCOT Protein Score are given for selected identified proteins.
# LRP6 (endogenous) = biological target: T8, LRP6 (endogenous) (human, UniProt O75581 20-1613); experiment: as above
# T8 construct: whole, on cells
# Method: as §1
# [4] = biological target: T4, Lgr5-exo-Fc (leucine-rich-repeat …); experiment: SPR array imaging (IBIS MX96), RSpo-1-FH captured on anti-Flag spots of decreasing density, 1:1 model, extrapolated to Rmax=0
# Excerpt: FIG. 15: Rspondin1-Lgr5 interaction KD determination by Surface Plasmon Resonance array imaging. […] In IBIS-SPRint software (version 2) an exponential fitting routine y=a*ebx was used for extrapolating the values of KD and kd at Rmax=0 (arrows).
# Method: IBIS-SPRinT 2.0. An array of anti-Flag spots with decreasing densities was printed on a preactivated sensor surface (IBIS Technologies, Enschede, the Netherlands) using a continuous flow microspotter (CFM) (Wasatch Microfluidics, Utah, US).
# [5] = biological target: T5, LGR5-478 (exo domain of LGR5 without …); experiment: gel filtration of purified proteins
# T6 sequence (Q13467 27-585 limits assumed): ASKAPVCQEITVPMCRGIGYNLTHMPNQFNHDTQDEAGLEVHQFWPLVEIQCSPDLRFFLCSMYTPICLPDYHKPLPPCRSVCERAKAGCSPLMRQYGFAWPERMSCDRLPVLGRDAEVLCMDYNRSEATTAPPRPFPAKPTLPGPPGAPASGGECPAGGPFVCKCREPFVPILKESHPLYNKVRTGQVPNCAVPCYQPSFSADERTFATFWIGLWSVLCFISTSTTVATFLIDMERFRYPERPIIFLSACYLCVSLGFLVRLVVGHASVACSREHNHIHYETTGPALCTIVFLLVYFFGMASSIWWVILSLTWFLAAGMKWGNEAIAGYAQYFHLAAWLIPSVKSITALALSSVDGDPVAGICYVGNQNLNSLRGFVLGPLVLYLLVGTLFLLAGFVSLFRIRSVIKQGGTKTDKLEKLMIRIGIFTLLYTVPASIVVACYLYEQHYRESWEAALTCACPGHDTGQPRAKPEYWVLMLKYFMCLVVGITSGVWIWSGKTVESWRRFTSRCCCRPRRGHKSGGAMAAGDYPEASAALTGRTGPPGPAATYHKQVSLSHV
# T8 sequence (O75581 20-1613): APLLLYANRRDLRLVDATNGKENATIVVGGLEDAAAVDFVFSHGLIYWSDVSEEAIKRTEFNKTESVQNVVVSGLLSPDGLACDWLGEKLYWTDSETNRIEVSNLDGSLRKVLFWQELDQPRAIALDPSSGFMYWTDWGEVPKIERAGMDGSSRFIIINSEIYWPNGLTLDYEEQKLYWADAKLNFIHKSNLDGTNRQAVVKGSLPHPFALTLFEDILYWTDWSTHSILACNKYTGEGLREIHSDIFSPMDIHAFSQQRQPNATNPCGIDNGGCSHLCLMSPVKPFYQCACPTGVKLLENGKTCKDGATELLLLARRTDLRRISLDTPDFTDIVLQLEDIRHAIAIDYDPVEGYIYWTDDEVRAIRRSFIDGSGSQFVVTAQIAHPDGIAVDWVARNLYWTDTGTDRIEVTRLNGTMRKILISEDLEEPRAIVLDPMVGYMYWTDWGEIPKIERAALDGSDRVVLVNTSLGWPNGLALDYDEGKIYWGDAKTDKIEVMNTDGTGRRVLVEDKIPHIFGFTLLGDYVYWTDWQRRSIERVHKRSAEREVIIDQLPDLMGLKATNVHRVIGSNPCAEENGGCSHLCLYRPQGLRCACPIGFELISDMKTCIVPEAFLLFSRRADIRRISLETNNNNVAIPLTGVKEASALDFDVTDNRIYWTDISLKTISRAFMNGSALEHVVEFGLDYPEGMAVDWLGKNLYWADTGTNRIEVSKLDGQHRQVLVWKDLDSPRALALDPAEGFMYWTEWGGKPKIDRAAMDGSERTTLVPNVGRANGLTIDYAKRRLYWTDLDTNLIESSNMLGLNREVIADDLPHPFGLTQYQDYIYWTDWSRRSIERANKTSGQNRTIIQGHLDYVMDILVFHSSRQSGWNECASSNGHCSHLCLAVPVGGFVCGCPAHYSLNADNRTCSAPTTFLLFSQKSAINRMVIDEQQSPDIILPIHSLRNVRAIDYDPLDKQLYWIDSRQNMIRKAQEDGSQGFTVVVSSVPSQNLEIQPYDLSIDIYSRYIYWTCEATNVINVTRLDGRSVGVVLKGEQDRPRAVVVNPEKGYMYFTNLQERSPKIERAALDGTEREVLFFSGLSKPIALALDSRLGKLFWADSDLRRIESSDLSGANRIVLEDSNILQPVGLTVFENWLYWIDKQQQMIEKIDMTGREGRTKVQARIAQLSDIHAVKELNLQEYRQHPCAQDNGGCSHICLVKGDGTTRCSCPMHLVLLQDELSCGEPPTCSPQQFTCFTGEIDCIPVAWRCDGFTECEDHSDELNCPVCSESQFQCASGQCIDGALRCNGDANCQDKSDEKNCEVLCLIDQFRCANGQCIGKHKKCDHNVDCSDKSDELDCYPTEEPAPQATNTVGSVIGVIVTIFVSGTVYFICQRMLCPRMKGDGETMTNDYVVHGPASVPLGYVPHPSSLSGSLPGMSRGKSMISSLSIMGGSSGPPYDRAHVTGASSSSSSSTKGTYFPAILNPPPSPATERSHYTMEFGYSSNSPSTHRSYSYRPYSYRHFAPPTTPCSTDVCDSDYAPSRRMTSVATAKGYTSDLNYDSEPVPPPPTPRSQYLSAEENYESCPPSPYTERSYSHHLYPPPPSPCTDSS
# T7 sequence (O75197 32-1615): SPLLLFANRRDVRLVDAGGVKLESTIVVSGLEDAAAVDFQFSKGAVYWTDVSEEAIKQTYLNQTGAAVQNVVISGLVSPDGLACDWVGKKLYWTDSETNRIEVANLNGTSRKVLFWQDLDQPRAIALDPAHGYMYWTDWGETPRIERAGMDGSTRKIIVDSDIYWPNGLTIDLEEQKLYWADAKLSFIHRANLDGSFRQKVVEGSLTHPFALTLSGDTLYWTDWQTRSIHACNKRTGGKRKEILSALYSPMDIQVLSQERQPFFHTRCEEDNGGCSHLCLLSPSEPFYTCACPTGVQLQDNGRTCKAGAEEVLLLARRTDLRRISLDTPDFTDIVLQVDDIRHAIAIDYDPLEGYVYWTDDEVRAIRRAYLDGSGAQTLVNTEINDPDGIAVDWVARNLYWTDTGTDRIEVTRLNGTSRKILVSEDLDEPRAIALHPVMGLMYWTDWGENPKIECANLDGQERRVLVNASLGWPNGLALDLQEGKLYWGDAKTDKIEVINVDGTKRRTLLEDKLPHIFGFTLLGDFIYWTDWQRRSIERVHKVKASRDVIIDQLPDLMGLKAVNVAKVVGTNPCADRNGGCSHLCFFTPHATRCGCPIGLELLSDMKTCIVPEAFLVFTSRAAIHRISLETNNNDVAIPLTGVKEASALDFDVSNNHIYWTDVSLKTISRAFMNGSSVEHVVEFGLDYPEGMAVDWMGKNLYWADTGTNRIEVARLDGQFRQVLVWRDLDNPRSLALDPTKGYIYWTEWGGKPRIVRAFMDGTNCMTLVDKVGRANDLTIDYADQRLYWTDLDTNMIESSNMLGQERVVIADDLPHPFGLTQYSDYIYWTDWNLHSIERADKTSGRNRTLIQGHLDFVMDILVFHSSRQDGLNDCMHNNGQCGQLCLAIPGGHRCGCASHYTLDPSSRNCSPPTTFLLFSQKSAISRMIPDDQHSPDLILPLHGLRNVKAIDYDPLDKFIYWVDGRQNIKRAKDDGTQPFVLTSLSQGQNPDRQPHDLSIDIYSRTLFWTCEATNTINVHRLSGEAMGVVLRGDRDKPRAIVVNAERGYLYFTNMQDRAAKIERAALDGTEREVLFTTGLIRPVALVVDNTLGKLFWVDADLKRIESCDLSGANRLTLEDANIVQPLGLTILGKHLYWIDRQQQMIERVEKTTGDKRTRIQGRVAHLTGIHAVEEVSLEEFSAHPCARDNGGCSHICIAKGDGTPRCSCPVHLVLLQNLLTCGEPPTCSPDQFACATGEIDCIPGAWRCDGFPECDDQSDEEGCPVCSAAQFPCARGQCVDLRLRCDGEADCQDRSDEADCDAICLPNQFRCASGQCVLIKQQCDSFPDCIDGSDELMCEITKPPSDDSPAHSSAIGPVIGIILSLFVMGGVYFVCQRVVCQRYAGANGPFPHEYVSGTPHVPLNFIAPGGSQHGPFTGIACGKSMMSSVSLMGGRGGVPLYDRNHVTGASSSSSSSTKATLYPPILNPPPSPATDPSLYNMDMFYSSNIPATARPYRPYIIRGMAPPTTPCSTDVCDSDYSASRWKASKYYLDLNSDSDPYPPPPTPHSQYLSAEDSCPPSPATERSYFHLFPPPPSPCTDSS
binder,measurement,setting,value
B1,binding result,[1],no binding
same,binding result,[2],no binding
same,binding result,tagged Frizzled5 (Frz5),no binding (tested: ˜1 µg/ml)
same,binding result,control Lgr7,no binding (tested: ~1 µg/ml)
B2,Kd,[3],~3 nM
same,binding result,LRP5 (endogenous),no binding (tested: 1 µg/ml)
same,binding result,LRP6 (endogenous),no binding (tested: 1 µg/ml)
same,Kd,[4],3.07 nM
same,koff,[4],0.000155 s⁻¹
same,kon,[4],50400 M⁻¹ s⁻¹
B3,binding result,[5],no binding
